From US20240392013A1, “IL1RAP ANTIBODIES AND USES THEREOF” (STELEXIS THERAPEUTICS, LLC, priority 2021, published 2024)
Numbering of substitutions follows the chain as printed.

T1: hIL1RAP (Homo sapiens, UniProt Q9NPH3)
T1 sequence (Q9NPH3 21-367 limits assumed): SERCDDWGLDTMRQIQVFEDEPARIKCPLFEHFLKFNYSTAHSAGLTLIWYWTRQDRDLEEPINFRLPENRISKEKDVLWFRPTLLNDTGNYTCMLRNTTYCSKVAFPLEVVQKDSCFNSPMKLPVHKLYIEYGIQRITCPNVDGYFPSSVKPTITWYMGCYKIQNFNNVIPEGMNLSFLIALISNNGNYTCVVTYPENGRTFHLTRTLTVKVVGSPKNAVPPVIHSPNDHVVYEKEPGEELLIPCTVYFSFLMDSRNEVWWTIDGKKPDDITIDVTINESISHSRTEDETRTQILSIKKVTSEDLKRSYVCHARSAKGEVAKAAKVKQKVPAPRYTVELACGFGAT

B1: 74804_27I24A: anti-IL1RAP mAb; VH SEQ ID NO:13, VL SEQ ID NO:29, λ light chain (antibody, V domains shown)
VH: EVQLVESGGGLVKPGGSLRLSCAASGFTFITYSMNWVRQAPGKGLEWVSSISSISSYIYYADSVKGRFTISRDNAKNSLYLQMDSLRAEDSAVYYCAREGIVGPTGYFDSWGQGTLVTVSS
VL: QSVLTQPPSVSAAPGQKVTISCSGSSSNIGNHYVSWYQQLPGTAPKLLIYDNNKRPSGIPDRFSGSKSGTSATLGITGLQTGDEADYYCGTWDSRLSAYWVFGGGTKLTVL
modifications: 74804_27I24A VH; 74804_27I24A VL
B2: 74804_25H09A: anti-IL1RAP mAb; VH SEQ ID NO:9, VL SEQ ID NO:25, κ light chain (antibody, V domains shown)
VH: QVQLVQSGAEVKKPGSSVKVSCKASGDTFSNYAITWVRQAPGQGLEWIVGFSPIFGTANYAQKFQGRVTITADKSTSTAYMELSSLISEDTAVYYCAWGSGNFNWFDPWGQGTLVTVSS
VL: AIRMTQSPSSFSASTGDRVTITCRASQGISSYLAWYQQKPGKAPKLLIYAASTLQSGVPSRFSGSGSGTDFTLTISSLQSEDFATYYCQQYYSYPLTFGGGTKVEIK
modifications: 74804_25H09A VH; 74804_25H09A VL
B3: 74804_07K10A: anti-IL1RAP mAb; VH SEQ ID NO:5, VL SEQ ID NO:22, κ light chain (antibody, V domains shown)
VH: QVQLLQSGAEVKKPGSSVKVSCRASGGTFSIYAIDWVRQAPGQGLEWMGGIIPISGTENSAQNFQDRITITADKSTNTAYMELSSLRSEDTAVYYCARNGATSDAFDIWGQGTMVTVSS
VL: EIVLTQSPGTLSLSPGERATLSCRASLSVSSNYLAWFQQRPGQAPRLLIYGVSRRATGIPDRFSGSGSGTDFTLTISRLEPEDFAVYYCQQYGSSPLTFGGGTKVEIK
modifications: 74804_07K10A VH; 74804_07K10A VL, 74804_29D13A VL and 74804_43F04A VL
B4: 74804_51C10A: anti-IL1RAP mAb; VH SEQ ID NO:8, VL SEQ ID NO:24, κ light chain (antibody, V domains shown)
VH: B3 VH with R23K, S30N, S55F, E58A, N63K, D66G, I68V
VL: B3 VL with L27Q
modifications: 74804_51C10A VH; 74804_51C10A VL
B5: 74804_29D13A: anti-IL1RAP mAb; VH SEQ ID NO:6, VL SEQ ID NO:22, κ light chain (antibody, V domains shown)
VH: B3 VH with R23K, S55F, E58A, N63K, D66G, I68V, N77S, I108M
VL: B3 VL
modifications: 74804_12A21B VH and 74804_29D13A VH; 74804_07K10A VL, 74804_29D13A VL and 74804_43F04A VL
B6: 74804_05B24A: anti-IL1RAP mAb; VH SEQ ID NO:10, VL SEQ ID NO:26, κ light chain (antibody, V domains shown)
VH: EVQLVDSGGGLVKPGGSLRLSCAATGFTFSNVWMSWVRQGSGKGLEWVGRIKSKTDGGTIDYAAPVKGRFTISRDDPKNTLYLQMNSLKTEDTAVYYCTTGELLGFDYWGQGTLVTVSS
VL: DIVMTQSPLSLPVTPGEPASISCRSGQSLLHNNGFNCLAWYLQKPGQSPQLLIYLGSNRASGVPDRFSGSGSGTDFTLKISRVEAEDVGVFYCMQTLQTPITFGQGTRLEIK
modifications: 74804_05B24A VH; 74804_05B24A VL
B7: 74804_18L05A: anti-IL1RAP mAb; VH SEQ ID NO:4, VL SEQ ID NO:21, κ light chain (antibody, V domains shown)
VH: QVQLVQSGAEVKKPGASVKVSCKTSGYTFTSCCMHWVRQAPGQGLEWMGIINPSVGSTSYAQKFQGIVTMTRDTSTSTVYMELSSLRSEDTAVYYCAVDSSGSRYYYGMDVWGQGTTVTVSS
VL: EIVMTQSPATLSVSPGERATLSCRASQSVRSNLAWYQQRPGQAPRLLIYGTSTRATGIPARFSGSGSGTEFTLTISSLQSEDFAVYYCQQYNYWPYTFGQGTKLEIK
modifications: 74804_18L05A VH; 74804_18L05A VL

System: cyIL1RAP
Experiment: Kinetics of IL1RAP mAbs by Octet, cynomolgus IL1RAP
Format: binding
Settings: not given
Experimental: (§1) Antibodies were diluted in kinetics buffer (0.1% BSA, 0.02% Tween-20 and 0.05% NaN3 in PBS) and loaded onto 16 channel anti-mouse IgG Fc capture sensors (AMC, Cat #2001073; Sartorius, Göttingen, Germany). Human, huIL1RAP-His (Sino Biological, lot: MB08MA1301), and monkey, cyIL1RAP-His (Lake Pharma, NY, USA; lot:16205819371) proteins were titrated starting from the highest concentration of 100 nM and followed by 50 nM and 25 nM. Purified antibodies were loaded at 5 μg/ml in kinetics buffer. The experimental parameters selected to determine the kinetic constants were Baseline for 60 s, Loading of antibody to sensor for 180 s, Association of analyte to antibody for 120 s, Dissociation for 1200 s and Regeneration in 10 mM Glycine pH 1.7 for 4×30 s.
(§2) Regeneration cycle tracking was selected for 12 cycles. Binding to human and cynomolgus IL1RAP was measured and KD (M) kinetics were calculated. Also, the disassociation rate (Kdis) (1/s) and association rate (Kon) (1/Ms) kinetics were calculated (data not shown).

Row | Molecule | cyIL1RAP kdis(1/s) [s⁻¹] | cyIL1RAP kon(1/Ms) [M⁻¹ s⁻¹]
1 | B1 | 0.001071 | 379500
2 | B2 | 0.000297 | 142000
3 | B3 | 0.000283 | 376800
4 | B4 | 0.000459 | 325600
5 | B5 | 0.00065 | 329600
6 | B6 | 0.000563 | 267900
7 | B7 | 0.000954 | 221100

System: IL1-induced NFκB activity
Experiment: HEK-BlueIL1β NFκB Reporter Assay
Format: cell-based
Settings: nM range, read-out: IC50, inhibition of IL1-induced NFκB activity
Experimental: The HEK-Blue IL1β (Invivogen, Cat #hkb-il1b) cell line was used to monitor NFκB activity upon stimulation with IL1β cytokine. In this cell line the secreted embryonic alkaline phosphatase reporter gene (SEAP) is inducibly expressed under the control of IFN-β minimal promoter fused to NFκB/AP-1. Specificity to IL1β cytokine was achieved by blockage of TNF-α response. The cells were maintained in the presence of hygromycin (200 μg/ml) and zeocin (100 μg/ml).
For the functional assay, cells were plated at a density of 5×10^4 cells/well in 96-well plates. Cells were treated with each antibody at the highest concentration of 200 μg/ml followed by seven serial 1:3 dilutions and incubated for 45 minutes at 37° C./5% CO2 in humified incubator. Cells were then stimulated with IL1β ([…]) and incubated overnight at 37° C./5% CO2 in humified incubator. Every treatment was conducted in triplicates. Following, supernatants from each well were mixed with Quanti-Blue substrate (Invivogen, CA USA; Cat #rep-qb1) according to manufacturer's recommendations and secreted SEAP was measured using spectrophotometer at 650 nm.

Row | Molecule | IC50 [nM]
8 | B1 | 1.96
9 | B2 | 1.77
10 | B3 | 3.19
11 | B4 | 2.5
12 | B5 | 1.85
13 | B6 | 0.446
14 | B7 | 1.73

System: IL33-induced NFκB activity
Experiment: HEK-BlueIL33 NFκB Reporter Assay
Format: cell-based, human
Settings: nM range, read-out: IC50, inhibition of IL33-induced NFκB activity
From the text: HEK-Blue IL33 (Invivogen, Cat #hkb-hil33) cell line was used to monitor NFκB activity upon stimulation with IL33 cytokine. The secreted embryonic alkaline phosphatase reporter gene (SEAP) is inducible expressed under the control of IFN-β minimal promoter fused to NFκB/AP-1. HEK-BlueIL33 cells were also generated upon stable transfection with human IL1RL1 (ST2) gene. Specificity to IL33 cytokine was achieved by blockage of TNF-α and IL1 response. Cells are maintained in the presence of hygromycin (200 μg/ml), zeocin (100 μg/ml) and blasticidin (10 μg/ml).
For the functional assay, cells were plated at a density of 5×10^4 cells/well in 96-well plates. Cells were treated with each antibody at the highest concentration of 200 μg/ml followed by seven serial 1:3 dilutions and incubated for 45 minutes at 37° C./5% CO^2 in humified incubator. Cells were then stimulated with IL33 (12 μM) and incubated overnight at 37° C./5% CO2 in humified incubator. Every treatment was conducted in triplicates. Following, supernatants from each well were mixed with Quanti-Blue substrate (Invivogen, Cat #rep-qb1) according to manufacturer's recommendations and secreted SEAP was measured using spectrophotometer at 650 nm.

Row | Molecule | IC50 [nM]
15 | B1 | 8.31
16 | B2 | 6.55
17 | B3 | 6.62
18 | B4 | 13
19 | B5 | 8.75
20 | B6 | 2.72
21 | B7 | 4.81

System: patient-derived AML samples
Experiment: Cell viability of patient-derived AML samples, CellTiter-Glo
Format: cell-based, human
Settings: 15 patient-derived AML samples; 0.1-100 nM, 6 days
Experimental: Primary patient-derived AML cells collected using leukapheresis or peripheral blood draw were selected based on expression levels of IL1RAP, IL1R1 and IL1RL1. On study day 0, cell viability was calculated, and cells were seeded at a density of 20,000 viable cells/well in 96-well plates. Cells were treated on Day 0 with IL1RAP monoclonal antibodies at a concentration of 100 nM followed by 5-fold serial dilutions. Cytarabine treatment (5 μM) was used as a positive control. Plates were kept at 37° C./5% CO2 in humified incubator and media was not changed during the duration of the assay. On Day 6, plates were removed from incubator and equilibrated to room temperature for up to 30 minutes. Then CellTiter-Glo was added to wells (100 μl) and plates were mixed for 2 minutes on plate rocker, followed by 10 minutes incubation at room temperature. Luminescent signal was recorded using Tecan plate reader and IC50s were calculated.

Row | Molecule | Inhibition of viability
22 | B1 | inhibition of viability of patient-derived AML samples
23 | B6 | inhibition of viability of patient-derived AML samples

Biological target: T1, hIL1RAP
Experiment: Kinetics of IL1RAP mAbs by Octet, human IL1RAP
Format: binding
Set-up: extracellular domain His-tagged, Cat #10121-H08H; His; purchased Sino Biological lot MB08MA1301 (catalogue number not given)
Settings: not given
Experimental: as §1, §2

Row | Molecule | hIL1RAP kdis(1/s) [s⁻¹] | hIL1RAP kon(1/Ms) [M⁻¹ s⁻¹]
24 | B1 | 0.000747 | 350400
25 | B2 | 0.000337 | 154500
26 | B3 | 0.000234 | 392100
27 | B4 | 0.000301 | 343500
28 | B5 | 0.000361 | 336100
29 | B6 | 0.000491 | 294400
30 | B7 | 0.00037 | 227800
